T1: recombinant soluble human IL-6 receptor (SR344) (human, UniProt P08887 20-344, biotinylated (sites not given) where immobilized via streptavidin or used in phage ELISA)
T1 construct: also called soluble IL-6 receptor; membrane-type IL-6 receptor (when biotinylated and immobilized on the chip)
T1 sequence (looked up): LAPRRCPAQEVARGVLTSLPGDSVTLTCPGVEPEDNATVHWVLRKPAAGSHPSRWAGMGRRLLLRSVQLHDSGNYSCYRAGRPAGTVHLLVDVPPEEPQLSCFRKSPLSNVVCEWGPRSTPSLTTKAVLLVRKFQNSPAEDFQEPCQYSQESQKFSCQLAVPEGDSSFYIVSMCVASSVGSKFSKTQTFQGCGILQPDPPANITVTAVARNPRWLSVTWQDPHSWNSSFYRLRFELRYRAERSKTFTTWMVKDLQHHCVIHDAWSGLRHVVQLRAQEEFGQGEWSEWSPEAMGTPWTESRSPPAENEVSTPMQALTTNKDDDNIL

T2: soluble mouse IL-31 receptor (mouse, UniProt Q8K5B1 19-499)
T2 sequence (looked up): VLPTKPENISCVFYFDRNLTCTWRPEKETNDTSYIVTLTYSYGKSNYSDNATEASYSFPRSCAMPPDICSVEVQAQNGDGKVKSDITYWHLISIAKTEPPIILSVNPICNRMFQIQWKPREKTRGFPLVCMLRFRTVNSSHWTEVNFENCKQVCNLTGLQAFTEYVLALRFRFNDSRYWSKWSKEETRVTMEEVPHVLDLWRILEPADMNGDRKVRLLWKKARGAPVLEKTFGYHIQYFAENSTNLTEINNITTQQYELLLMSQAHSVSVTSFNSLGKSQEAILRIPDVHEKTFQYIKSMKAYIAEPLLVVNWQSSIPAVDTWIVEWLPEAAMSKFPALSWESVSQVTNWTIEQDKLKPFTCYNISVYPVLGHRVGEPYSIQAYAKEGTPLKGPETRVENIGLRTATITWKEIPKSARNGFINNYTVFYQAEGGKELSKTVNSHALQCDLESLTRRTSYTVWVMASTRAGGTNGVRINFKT


Legend:
[1] = target: T1, recombinant soluble human IL-6 receptor …; experiment: SPR Biacore T100, antibody on protein A/G chip, SR344 analyte, 37 C, ratio of pH 5.8 to pH 7.4
Protocol: (§1) Kinetic analyses of antigen-antibody reactions at pH 5.8 and pH 7.4 were carried out using a Biacore™ T100 surface plasmon resonance system (GE Healthcare) on the four antibodies: humanized PM1 antibody (WT) and H3pI/L73, CLH5/L73, and H170/L82 produced in Examples 2 and 4 (buffer: 10 mM MES (pH 7.4 or pH 5.8), 150 mM NaCl, and 0.05% TWEEN® 20 (polyoxyethelene sorbitan monolaurate)). Various antibodies were bound onto a sensor chip immobilized with recomb-protein A/G (Pierce) by amine coupling. SR344 adjusted to concentrations of 9.8 to 400 nM was injected to the chip as an analyte. […] All the measurements were carried out at 37° C. Association rate constants kₐ (1/Ms) and dissociation rate constants kd (1/s) were calculated using Biacore T100™ Evaluation Software (GE Healthcare), and dissociation constants KD (M) were calculated on the basis of those values (Table 5). Moreover, the ratio of the affinities at pH 5.8 and pH 7.4 were calculated for each clone to evaluate pH-dependent binding. All the measurements were carried out at 37° C.

[2] = target: T1, recombinant soluble human IL-6 receptor …; experiment: SPR Biacore T100, biotinylated SR344 on streptavidin chip (model of membrane IL-6 receptor), antibody 0.5 ug/mL as analyte, bound at pH 7.4, dissociation at pH 5.8, 37 C
Protocol: (§2) The binding to membrane IL-6 receptor was evaluated by evaluating the binding to the IL-6 receptor immobilized onto a sensor chip. SR344 was biotinylated according to a method known to persons skilled in the art, and the biotinylated SR344 was immobilized on the sensor chip via streptavidin by utilizing the affinity between streptavidin and biotin. All the measurements were carried out at 37° C., and the mobile phase buffer contained 10 mM MES (pH 5.8), 150 mM NaCl and 0.05% TWEEN® 20 (polyoxyethelene sorbitan monolaurate). The pH-dependent binding clones were injected therein under the condition of pH 7.4 and allowed to bind to SR344 (injection sample buffer: 10 mM MES (pH 7.4), 150 mM NaCl, 0.05% TWEEN® 20 (polyoxyethelene sorbitan monolaurate)), and the pH-dependent dissociation of each clone at the mobile phase pH of 5.8 was observed (FIG. 10).
(§3) The dissociation rate […]) at pH 5.8 was calculated using Biacore T100™ Evaluation Software (GE Healthcare) by fitting only the dissociation phase at pH 5.8, where 0.5 μg/mL of the sample was bound in 10 mM MES (pH 7.4), 150 mM NaCl, and 0.05% TWEEN® 20 (polyoxyethelene sorbitan monolaurate), and dissociated in 10 mM MES (pH 5.8), 150 mM NaCl, and 0.05% TWEEN® 20 (polyoxyethelene sorbitan monolaurate). Similarly, the dissociation rate (kd(1/s)) at pH 7.4 was calculated using Biacore T100™ Evaluation Software (GE Healthcare) by fitting only the dissociation phase at pH 7.4, where 0.5 μg/mL of the sample was bound in 10 mM MES (pH 7.4), 150 mM NaCl, and 0.05% TWEEN® 20 (polyoxyethelene sorbitan monolaurate), and dissociated in 10 mM MES (pH 7.4), 150 mM NaCl, and 0.05% TWEEN® 20 (polyoxyethelene sorbitan monolaurate).

[3] = target: T1, recombinant soluble human IL-6 receptor …; experiment: SPR Biacore T100, biotinylated SR344 on streptavidin chip (model of membrane IL-6 receptor), antibody 0.5 ug/mL as analyte, 37 C
Protocol: as §2, §3

[4] = target: T1, recombinant soluble human IL-6 receptor …; experiment: SPR Biacore T100, biotinylated SR344 on streptavidin chip (model of membrane IL-6 receptor), antibody 0.5 ug/mL as analyte, bound at pH 7.4, dissociation at pH 7.4, 37 C
Protocol: as §2, §3

[5] = target: T1, recombinant soluble human IL-6 receptor …; experiment: SPR Biacore T100, antibody on protein A/G chip, SR344 analyte, pH 5.8, 37 C
Protocol: as §1

[6] = target: T1, recombinant soluble human IL-6 receptor …; experiment: SPR Biacore T100, antibody on protein A/G chip, SR344 analyte, 37 C
Protocol: as §1

[7] = target: T1, recombinant soluble human IL-6 receptor …; experiment: SPR Biacore T100, integrated RU of SR344 bound over ten cycles, 37 C
Protocol: The produced pH-dependent binding clones described above were analyzed using a Biacore T100™ surface plasmon resonance system (GE Healthcare) for their ability to bind to the antigen SR344 multiple times at pH 5.8 and pH 7.4. More specifically, the analysis was carried out as follows. All the measurements were carried out at 37° C. First, the sample antibodies described above were bound onto a recomb-protein A/G (Pierce)-immobilized sensor chip by amine-coupling, where the mobile phase buffer was 10 mM MES (pH 5.8), 150 mM NaCl, and 0.05% TWEEN® 20 (polyoxyethelene sorbitan monolaurate) (step 1). SR344 adjusted to a concentration of about 40 nM was injected as an analyte for 3 minutes at pH 7.4 and allowed to bind (the buffer for injected SR344 was 10 mM MES (pH 7.4), 150 mM NaCl, and 0.05% TWEEN® 20 (polyoxyethelene sorbitan monolaurate)) (step 2). Subsequently, the injection of SR344 was discontinued and a mobile phase of pH 5.8 was allowed to flow for about 70 seconds to expose the antibody/SR344 complex under acidic conditions (step 3). Ten sets of this binding (step 2)/acidity exposure (step 3) process were continuously repeated to observe the sensorgram in real-time, which is shown in FIG. 11. […] In the 10-set repetition of the binding (step 2) and acidic exposure (step 3), almost all H170/L82 and CLH5/L73 antibodies were able to bind to new antigens in each set. […]

[8] = target: T1, recombinant soluble human IL-6 receptor …; experiment: SPR Biacore T100, antibody on protein A/G chip, SR344 analyte, pH 7.4, 37 C
Protocol: as §1

[9] = target: T2, soluble mouse IL-31 receptor; experiment: SPR Biacore T100, antibody on protein A/G chip, soluble mouse IL-31 receptor analyte, 25 C, ratio of pH 5.5 to pH 7.4
Protocol: (§4) Kinetic analysis of antigen-antibody reactions at pH 5.5 and pH 7.4 was carried out using a Biacore T100™ surface plasmon resonance system (GE Healthcare) for the two types of antibodies prepared as mentioned above: Anti-IL31R wild type and Anti-IL31R clone 1 (buffer: DPBS(−) (pH 7.4 or pH 5.5), 150 mM NaCl, 0.01% TWEEN® 20 (polyoxyethelene sorbitan monolaurate), 0.02% NaN₃). The antibodies were bound to a sensor chip on which recomb-protein A/G (Pierce) was immobilized by amine coupling, and then the soluble mouse IL-31 receptor (prepared according to the method described in WO 2007/142325) adjusted to an appropriate concentration was injected therein as an analyte. All the measurements were carried out at 25° C. Association rate constants kₐ (1/Ms) and dissociation rate constants kd (1/s) were calculated using Biacore T100™ Evaluation Software (GE Healthcare), and dissociation constants KD (M) were calculated based on those values (Table 16). Furthermore, the ratio of affinity at pH 5.5 and pH 7.4 was calculated for each clone to evaluate the pH-dependent binding.

[10] = target: T2, soluble mouse IL-31 receptor; experiment: SPR Biacore T100, antibody on protein A/G chip, soluble mouse IL-31 receptor analyte, pH 7.4, 25 C
Protocol: as §4

[11] = target: T2, soluble mouse IL-31 receptor; experiment: SPR Biacore T100, antibody on protein A/G chip, soluble mouse IL-31 receptor analyte, 25 C
Protocol: as §4

[12] = target: T2, soluble mouse IL-31 receptor; experiment: SPR Biacore T100, antibody on protein A/G chip, soluble mouse IL-31 receptor analyte, pH 5.5, 25 C
Protocol: as §4

| KD (pH 5.8)/KD (pH 7.4) [1] | koff [2] | kd ratio pH 5.8/pH 7.4 [3] | koff [4] | Kd [5] | koff [5] | kon [5] | pH-dependent binding (affinity ratio) relative to WT [6] | total amount of antigen bound over ten cycles relative to WT [7] | Kd [8] | koff [8] | kon [8] | KD (pH 5.5)/KD (pH 7.4) [9] | Kd [10] | koff [10] | kon [10] | pH-dependent binding ability relative to WT [11] | Kd [12] | koff [12] | kon [12] | Binder |
| --- | --- | --- | --- | --- | --- | --- | --- | --- | --- | --- | --- | --- | --- | --- | --- | --- | --- | --- | --- | --- |
| 66.1 | 0.00567 s⁻¹ | 5.5 | 0.00104 s⁻¹ | 74 nM | 0.028 s⁻¹ | 380000 M⁻¹ s⁻¹ | > 15 fold | ~4 fold | 1.1 nM | 0.00079 s⁻¹ | 710000 M⁻¹ s⁻¹ |  |  |  |  |  |  |  |  | CLH5/L73 (antibody, IgG1, V domains shown, expressed and purified as IgG) VH: QVQLQESGPGLVKPSETLSLTCAVSGYSISHDHAWSWVRQPPGEGLEWIGHISYSGITNYNPHLKGRVTISRDTSKNQFSLKLSSVTAADTAAYYCARFLARITAHDHWGEGTLVTVSS VL: DIQMTQSPSSLSASVGDSVTITCQASQHISSHLNWYQQKPGKAPELLIYYGSHLHSGVPSRFSGSGSGTDFTFTISSLEAEDAATYYCGQGNRLPYTFGQGTKVEIE |
|  |  |  |  |  |  |  |  |  |  |  |  | 1000 | 22 nM | 0.0033 s⁻¹ | 170000 M⁻¹ s⁻¹ | ~300 fold | 22000 nM | 0.024 s⁻¹ | 1100 M⁻¹ s⁻¹ | Anti-IL31R clone 1 (antibody, human IgG1, lambda, V domains shown, H chain (c1) / L chain (WT)) VH: not shown VL: LPVLTQPPSVSVAPGQTARITCGGNNIGSKTVYWYQQEPGQAPVLVVYDDTDRPAGIPERFSGANSGNTATLTISRVEAGDEADYYCQVWDSSTDHGVFGGGTKLTVLG |

Source: US20180282719A1 (published 2018)
